These results are taken from patent publication US20220298214A1.

For this experiment, the target named is GLP-1 receptor (UniProt P43220). The experiment can be described thus: cell-based or functional assay.
Sequence of GLP-1 receptor (P43220 24-463 limits assumed): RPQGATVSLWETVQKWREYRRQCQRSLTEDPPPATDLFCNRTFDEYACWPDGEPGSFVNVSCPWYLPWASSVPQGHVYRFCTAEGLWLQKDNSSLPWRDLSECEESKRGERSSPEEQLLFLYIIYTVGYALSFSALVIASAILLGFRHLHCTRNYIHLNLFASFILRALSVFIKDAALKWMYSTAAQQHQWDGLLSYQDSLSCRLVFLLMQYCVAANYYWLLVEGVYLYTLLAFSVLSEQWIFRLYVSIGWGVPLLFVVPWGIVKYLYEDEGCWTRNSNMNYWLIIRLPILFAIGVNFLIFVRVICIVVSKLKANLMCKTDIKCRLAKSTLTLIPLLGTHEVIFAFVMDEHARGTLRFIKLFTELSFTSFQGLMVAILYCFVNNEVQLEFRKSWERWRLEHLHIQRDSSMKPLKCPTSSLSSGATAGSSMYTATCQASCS

Dulaglutide (Fc fusion) gave an EC50 value (pM), luciferase reporter gene (CRE-Luc) in HEK293-GLP1R-CRE-Luc cells of 41.2 pM.
